Experimental findings from patent US20200317768A1 (published 2020) are described below.

T1: cynomolgus monkey FcγRIIa1 extracellular domain with C-terminal His-tag (cynomolgus monkey)
T1 construct: Expressed in FreeStyle 293 cells and purified; also called cyno FcγRIIa1; cynoFcgRIIa1; not shown: C-terminal His-tag
T1 chain: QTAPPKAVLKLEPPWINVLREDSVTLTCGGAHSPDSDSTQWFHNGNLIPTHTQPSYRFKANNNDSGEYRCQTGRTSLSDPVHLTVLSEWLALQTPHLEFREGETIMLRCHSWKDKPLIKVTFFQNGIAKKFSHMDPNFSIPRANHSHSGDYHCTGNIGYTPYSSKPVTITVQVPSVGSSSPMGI

T2: cynomolgus monkey FcγRIIa2 extracellular domain with C-terminal His-tag (cynomolgus monkey)
T2 construct: Expressed in FreeStyle 293 cells and purified; also called cyno FcγRIIa2; cynoFcgRIIa2; not shown: C-terminal His-tag
T2 chain: T1 chain with P95T, T121A, I127K, A128S, K130N, D135N, R142Q

T3: cynomolgus monkey FcγRIIa3 extracellular domain with C-terminal His-tag (cynomolgus monkey)
T3 construct: Expressed in FreeStyle 293 cells and purified; also called cyno FcγRIIa3; cynoFcgRIIa3; not shown: C-terminal His-tag
T3 chain: T1 chain with P95T, T121A, A128S, H133P, D135N

T4: cynomolgus monkey FcγRIIb extracellular domain with C-terminal His-tag (cynomolgus monkey)
T4 construct: Expressed in FreeStyle 293 cells and purified; also called cyno FcγRIIb; cynoFcγRIIb; not shown: C-terminal His-tag
T4 chain: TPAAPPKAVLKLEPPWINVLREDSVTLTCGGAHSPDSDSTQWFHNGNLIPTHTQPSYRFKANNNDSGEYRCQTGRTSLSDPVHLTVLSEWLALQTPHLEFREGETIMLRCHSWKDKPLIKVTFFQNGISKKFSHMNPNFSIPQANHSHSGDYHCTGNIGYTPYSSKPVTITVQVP

T5: cynomolgus monkey FcγRIIIaS extracellular domain with C-terminal His-tag (cynomolgus monkey, UniProt Q8SPW2 21-206 at identity 1.00))
T5 construct: Expressed in FreeStyle 293 cells and purified; also called cyno FcγRIIIaS; cynoFcγRIIIaS; not shown: C-terminal His-tag
T5 chain: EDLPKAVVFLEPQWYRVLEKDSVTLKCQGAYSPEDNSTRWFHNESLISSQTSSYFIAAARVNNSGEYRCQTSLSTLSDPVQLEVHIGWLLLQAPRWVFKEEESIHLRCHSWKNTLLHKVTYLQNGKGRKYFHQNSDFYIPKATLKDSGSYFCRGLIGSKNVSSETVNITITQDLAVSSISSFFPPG

T6: human FcγRIIaH extracellular domain with C-terminal His-tag (human, UniProt P12318 34-217)
T6 construct: Expressed in FreeStyle 293 cells and purified; also called human FcγRIIa (type H); FcgRIIaH; not shown: C-terminal His-tag
T6 sequence: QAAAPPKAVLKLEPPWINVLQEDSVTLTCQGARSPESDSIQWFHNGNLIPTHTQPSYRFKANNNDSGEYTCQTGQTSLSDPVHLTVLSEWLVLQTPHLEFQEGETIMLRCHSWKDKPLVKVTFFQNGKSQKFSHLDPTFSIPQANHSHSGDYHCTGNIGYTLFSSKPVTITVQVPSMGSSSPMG

T7: human FcγRIIaR extracellular domain with C-terminal His-tag (human, UniProt P12318 34-217)
T7 construct: Expressed in FreeStyle 293 cells and purified; also called human FcγRIIa (type R); FcgRIIaR; not shown: C-terminal His-tag
T7 chain: T6 sequence with H134R

T8: human FcγRIIb extracellular domain with C-terminal His-tag (human, UniProt P31994 43-217)
T8 construct: Expressed in FreeStyle 293 cells and purified; also called humanFcgRIIb; not shown: C-terminal His-tag
T8 sequence: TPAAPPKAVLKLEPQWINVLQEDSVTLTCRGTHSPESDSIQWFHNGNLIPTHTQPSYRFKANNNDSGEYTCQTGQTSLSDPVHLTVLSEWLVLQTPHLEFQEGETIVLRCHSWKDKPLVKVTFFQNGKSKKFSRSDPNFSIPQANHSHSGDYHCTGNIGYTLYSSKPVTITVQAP

B1: M103205H795-MY198 / M103202L889-SK1 (antibody, human IgG1, kappa)
heavy: QVTLKESGPVLVKPTETLTLTCTVSGIDLSHDDISWVRQAPGKGLEWVGIISYAGSTYYASWAKGRLTISKDTSKNQVVLTMTNMDPVDTATYYCARGVPAYSHGGDLWGQGTLVTVSSASTKGPSVFPLAPSSKSTSGGTAALGCLVKDYFPEPVTVSWNSGALTSGVHTFPAVLQSSGLYSLSSVVTVPSSSLGTQTYICNVNHKPSNTKVDKKVEPKSCDKTHTCPPCPAPELLNGPVVFLFPPKPKDTLMISRTPEVTCVVVDVSDEDPEVKFNWYVDGVEVHNAKTKPREEQYNSTYRVVSVLTVLHQDWLNGKEYKCKVSNKALPKPIEKTISKAKGQPREPQVYTLPPSREEMTKNQVSLTCLVKGFYPSDIAVEWESNGQPENNYKTTPMVLDSDGSFFLYSKLTVDKSRWQQGNVFSCSVMHEALHNHYTQKSLSLSP
light: DIVMTQSPATLSLSPGERATLSCTSSQSVYHANWLSWFQQKPGQPPKLLIYWASTLAYGVPSRFSGSGSGTDFTLTISSLQPEDAATYYCAGGYGGGRYAFGQGTKVEIKRTVAAPSVFIFPPSDEQLKSGTASVVCLLNNFYPREAKVQWKVDNALQSGNSQESVTEQDSKDSTYSLSSTLTLSKADYEKHKVYACEVTHQGLSSPVTKSFNRGEC
notes: Fc variant of M103205H795-SG1, expressed with M103202L889-SK1 as light chain
B2: M103205H795-MY202 / M103202L889-SK1 (antibody, human IgG1, kappa)
heavy: B1 heavy with M398P
light: B1 light
notes: as for B1
B3: M103205H795-MY200 / M103202L889-SK1 (antibody, human IgG1, kappa)
heavy: B1 heavy with D270E, M398P
light: B1 light
notes: as for B1
B4: M103205H795-MY204 / M103202L889-SK1 (antibody, human IgG1, kappa)
heavy: B1 heavy with D270E, Q297L, M398P
light: B1 light
notes: as for B1
B5: M103205H795-MY199 / M103202L889-SK1 (antibody, human IgG1, kappa)
heavy: B1 heavy with V241S, D270E, M398P
light: B1 light
notes: as for B1
B6: M103205H795-MY209 / M103202L889-SK1 (antibody, human IgG1, kappa)
heavy: B1 heavy with V241S, Q297L, K328T, M398P
light: B1 light
notes: as for B1
B7: M103205H795-MY201 / M103202L889-SK1 (antibody, human IgG1, kappa)
heavy: B1 heavy with V241S, M398P
light: B1 light
notes: Fc variant of M103205H795-SG1, expressed with M103202L889-SK1 as light chain; also called MS1032LO06-MY201

Residue numbers refer to the chain shown, from its start.

T9 sequence (P08637 17-208 F176V): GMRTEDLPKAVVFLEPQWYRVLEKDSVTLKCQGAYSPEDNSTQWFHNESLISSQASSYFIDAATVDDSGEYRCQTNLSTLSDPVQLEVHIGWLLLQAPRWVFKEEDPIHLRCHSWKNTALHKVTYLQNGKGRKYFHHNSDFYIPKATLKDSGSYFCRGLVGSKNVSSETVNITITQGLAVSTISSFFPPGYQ

The first test addresses T1, cynomolgus monkey FcγRIIa1 …. Put plainly: SPR (Biacore); KD of SG1 divided by KD of the variant for this FcgR.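 Also: relative to parent M103205H795-SG1 carrying the SG1 human heavy chain constant region.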 The method, then:
(§1) Regarding such interactions, KD values were calculated using the following 1:1 binding model described in BIACORE® T100 Software Handbook BR1006-48 Edition AE.
(§2) The behavior of interacting molecules according to the 1:1 binding model on BIACORE® can be described by Equation 1: Req=C·R max/(KD+C)+RI, wherein, Req is a plot of steady-state binding levels to analyte concentration. C is concentration, RI is bulk refractive index contribution in the sample, and Rmax is analyte binding capacity of the surface. When this equation is rearranged, KD can be expressed as Equation 2: KD=C·Rmax/(Req−RI)−C. KD can be calculated by substituting the values of Rmax, RI, and C into Equation 1 or Equation 2. From the current measurement conditions, RI=0, C=2 μmol/L can be used.
(§3) The variants were expressed using M103202L889-SK1 as the light chain and their affinity was analyzed.
For the molecule B1, the “KD fold (SG1 = 1)” value was 7.3 fold.
The same measure, in the same setting: then B2, with 5.3 fold; and B3, with 1.9 fold; and B4, with 2.5 fold.
The same measure, in the same setting: then B5, with 1.7 fold; and B6, with 5.1 fold; and B7, with 2.3 fold.

Another test has as its target T2, cynomolgus monkey FcγRIIa2 …. The description is as above. The method, then: as §1, §2, §3
Take B1: the “KD fold (SG1 = 1)” value was determined as 15.5 fold.
Take B2: the “KD fold (SG1 = 1)” value stood at 8 fold.
Same read-out and setting: then B3, with 3.4 fold; and B4, with 3.6 fold; and B5, with 2.6 fold.
On the same count and under the same terms, then B6, with 7.4 fold; and B7, with 8.6 fold.

In a further test the target is T3, cynomolgus monkey FcγRIIa3 …. Described as above. As for the experimental part:
as §1, §2, §3
With B1, the “KD fold (SG1 = 1)” value is 12.1 fold.
As to B2, the “KD fold (SG1 = 1)” value was determined as 7.7 fold.
Consider B3, for which the “KD fold (SG1 = 1)” value came out at 3.4 fold.
With B4, the “KD fold (SG1 = 1)” value worked out at 8.8 fold.
For the molecule B5, the “KD fold (SG1 = 1)” value was found to be 1.4 fold.
The same measure, in the same setting: then B6, with 5.9 fold; and B7, with 4.4 fold.

The target of another test is T4, cynomolgus monkey FcγRIIb extracellular …. The description is as above. The method, then:
as §1, §2, §3
B1: the “KD fold (SG1 = 1)” value is 7.5 fold.
Still for that read-out and setting: then B2, with 3.9 fold.
Take B3: the “KD fold (SG1 = 1)” value was 1.6 fold.
Regarding B4, the “KD fold (SG1 = 1)” value stood at 3.2 fold.
As for B5, the “KD fold (SG1 = 1)” value came out at 1.6 fold.
Same read-out and setting: the figure for B7 is 4.3 fold.

For a further test, the target named is T5, cynomolgus monkey FcγRIIIaS …. Described as above. The method, then:
as §1, §2, §3
For B1, the “KD fold (SG1 = 1)” value came to 0.18 fold.
B2: the “KD fold (SG1 = 1)” value was 0.09 fold.
Still for that read-out and setting: then B3, with 0.08 fold.
In the case of B4, the “KD fold (SG1 = 1)” value was found to be 0.1 fold.
Still for that read-out and setting: then B5, with 0.09 fold; and B6, with 0.16 fold; and B7, with 0.06 fold.

Another test has as its target T6, human FcγRIIaH extracellular domain …. Described as above. The method, then: as §1, §2, §3
For the molecule B1, the “KD fold (SG1 = 1)” value was found to be 1.3 fold.
On the same count and under the same terms, the figure for B2 is 0.6 fold; for B3 it is 0.4 fold.
Same read-out and setting: then B4, with 0.5 fold.
Still for that read-out and setting: the figure for B5 is 0.6 fold.
As for B6, the “KD fold (SG1 = 1)” value worked out at 1.2 fold.
Same read-out and setting: then B7, with 0.8 fold.

The next test deals with T7, human FcγRIIaR extracellular domain …. Described as above. The method, then: as §1, §2, §3
In the case of B1, the “KD fold (SG1 = 1)” value came to 1.4 fold.
As to B2, the “KD fold (SG1 = 1)” value came out at 0.9 fold.
Same read-out and setting: then B3, with 0.4 fold.
The same measure, in the same setting: then B4, with 0.4 fold; and B5, with 0.4 fold.
On the same count and under the same terms, then B6, with 1.3 fold.
Consider B7, for which the “KD fold (SG1 = 1)” value stood at 0.6 fold.

In another test the target is T8, human FcγRIIb extracellular domain with …. Described as above. As for the experimental part: as §1, §2, §3
As for B1, the “KD fold (SG1 = 1)” value came to 11 fold.
Same read-out and setting: the figure for B2 is 6.5 fold; for B3 it is 3.3 fold; for B4 it is 3.5 fold.
The same measure, in the same setting: then B5, with 2.4 fold.
For B6, the “KD fold (SG1 = 1)” value was 9.2 fold.
The same measure, in the same setting: then B7, with 4.2 fold.

A further test addresses T9, human FcγRIIIaV extracellular domain with C-terminal His-tag (human, UniProt P08637 17-208).
T9 construct: Expressed in FreeStyle 293 cells and purified; also called FcgRIIIaV; not shown: C-terminal His-tag
The test is described as above. The method, then: as §1, §2, §3
B1: the “KD fold (SG1 = 1)” value came to 0.12 fold.
Same read-out and setting: then B2, with 0.09 fold; and B3, with 0.05 fold.
On to B4, for which the “KD fold (SG1 = 1)” value was 0.07 fold.
Same read-out and setting: the figure for B5 is 0.06 fold; for B6 it is 0.06 fold.
On the same count and under the same terms, then B7, with 0.05 fold.
